Measured values: the nanobody polyreactivity screen of Harvey et al. (2022)

Assay: yeast display, Sf9 membrane polyspecificity reagent, FACS + sequencing; frameworks hold sequencing errors
In short: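 In a synthetic yeast display library (Saccharomyces cerevisiae BJ5465), nanobody expression was induced with galactose for 36–48 hours. FACS gates were set low and high (top ~1%) using anti-HA fluorescence for expression and streptavidin fluorescence for binding of the Sf9 membrane reagent. Each polyreactivity label is drawn from the gate of origin.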

Row | Sequence | polyreactivity (PSR sort gate)
1 | QDQLVESGGGLVQAGGSLRLSCAASGRNFYRNAMGWYRPAPGKEWEVVAAITQSSGSTYYADSVKGRCTISRDNAKHTVYLQMNSLKPEDTAVYYCAALVRKYGVDYWGQGTQVTVSS | high polyreactivity
2 | QDQLVESGGGLVQAGGSLRLSCAASGRTFDDYAMGWSRPAPGKERELVAAINSGGNTYYADSVKGRFTISRDNAKNTVYLQMNSLKREDTADYYCAAYYRDKLSGYNYWRQGTQVTVSS | high polyreactivity
3 | QDQLVESGGGLVQAGGSLRLSCAASGRTFGRYAMGWYRQAPGKERELVASISYSTDSTYYADSVKGRFTISRDNAKNTVYLQMNSLKPEDTAVYYCATDSVNVGSYVGDKHDYWGQGTQVTVSS | low polyreactivity
4 | QDQLVESGGGLVQAGGSLRLSCAASGRTFPGYAMGWYRQAPGKERELVATSTVSDGSTYYADSVKGRFTISRDNAMNTVYLHMNSLIAEDTAVYYCAKDGGRKRSYSDFDYWRQGTQVTVSS | low polyreactivity
5 | QDQLVESGGGLVQAGGSLRLSCAASGRTFRRYAMGWYRQAPGKERELVAAISASGGSTYYADSVKGRFTISRDNAKNTVYLQMNSLKPEDTAVYYCYALHRAGLFGHYPYESWGQGTQVTVSS | high polyreactivity
6 | QDQLVESGGGLVQAGGSLRLSCAASGRTFSRYALGWYRQAPGKERELVAAISWSGGTTHYADSVKGRFTISRDNAKNTVYLLMNRLKPEDTAFYYCNKLRQIEFWGQGTQVTVSS | high polyreactivity
7 | QDQLVESGGGLVQAGGSLRLSCAASGRTFSYYTMGWYRQPPGKERELVARISNRGTNTYYADSVKGRFTISRDNAKNTVYLQLNSLKPEDTAVYYCAKYYYPSIVGYDSWGQGTQVTVSS | low polyreactivity
8 | QDQLVESGGGLVQAGGSLRLSCAASGRTFTGYTMGWYRQAPGKERELVASISSSGGRTYYADSVKGRFTISRDNAKNTVFLQMKSLKPEDTAVYYCAKRGAYGYGYYSYDYWGQGTQVTVSS | high polyreactivity
9 | QDQLVESGGGLVQAGGSLRLSCAASGRTFTRYAMGWYRPAPGKERELVAAISKRGGSTYYADSVKGRFTISRDNAKNTVYLQMNSLKPEDTAVYYCAADQPYHDSEYWGQGTQVTVSS | high polyreactivity
10 | QDQLVESGGGLVQAGGSLRLSCAASGRTFTSNAMGRYRQAPGKERELVAAINFRGDSTYYADSVKGRFTISRDNAKNTVYLQMNSLKPEDSAVYYCAAVGGRSSYRLDYWGQGTQVTVSA | low polyreactivity
11 | QDQLVESGGGLVQAGGSLRLSCAASGRTFVHYVMGWYRQAPGKERELVAAITSSGGSTYADSVKGRFTISRDNAKNTVYLQMNSLKPEDTAVYYCAADYLDGVGDVEHDYWGQGTQVTVSS | low polyreactivity
12 | QDQLVESGGGLVQAGGSLRLSCAASGRTFVSNGMGWYRQAPGKERELLADINDGDDTYYADSVKGRFTISRDNAKNTVYLQMNSLKPEDTAVYYCAADPYWFFPHYDSWGQGTQVTVSS | low polyreactivity
13 | QDQLVESGGGLVQAGGSLRLSCAASGRTFVSYVMGGYRQAPGKERELVAAIRRRGGRTYYSDSVKGRFTISRDNAKNTVYLQMNSLKPEDTAVYYCAAAQPGTNAYRVGSWGQGTQVSVSS | high polyreactivity
14 | QDQLVESGGGLVQAGGSLRLSCAASGRTFVYNAMGWYRKAPGKVRELVAAITRGGSTNYADSVKGRFTISRDNAKNTVYLQMNILKPEDTAGYYCAAGLKRYGSYPWLKSGMGYWGQGTQVTVSS | high polyreactivity
15 | QDQLVESGGGLVQAGGSLRLSCAASGRTFWYYAMGWYRQATGKERELVAAISSRGGTTYYADSVKGRFTISRDNAKNTVYLQMNSVKPEDTAVYYCASERWDLWLLYDYWGQGTQVTVSS | high polyreactivity
16 | QDQLVESGGGLVQAGGSLRLSCAASGRTFYRNAMGWYRQAPGKERELVAAISGSGVRTYYADSVKGRFTISRDNAKNTVYLHMNSLKPEDTAVYYCARSVTWFRGRFSPDYGSWGQGTQVTVSS | high polyreactivity
17 | QDQLVESGGGLVQAGGSLRLSCAASGRTFYRYAMGWSRQAPGKERELVAVISTDGSSTYYADSVKGRFTISRDNAKNTVYLQMNSLKPVDTAVYYCAARAPESYVSTRAHYYWGQGTQVTVSS | high polyreactivity
18 | QDQLVESGGGLVQAGGSLRLSCAASGRTFYYSAMGWSRQAPGKERELVATMSRGITNYADSVKGRFTISRDNAKNTVYLQMNSLKPEDTAVYYCAARDGWRSHFRGDYWGQGTQVTVSS | high polyreactivity
19 | QDQLVESGGGLVQAGGSLRLSCAASGSICSEYAMGWYRQAPGKERELVAAISRSGGTTYYADSVKGRFTISRDNAKNTVFLQMNSLKPEDTAVYYCAARYFRGSYPMGYWGQGTQVTVSS | high polyreactivity
20 | QDQLVESGGGLVQAGGSLRLSCAASGSIFAYYVMGWYRQAPGKERELVAAISKSGGSTYYADSVQGRFTISRDNAKNTVYVQRNSLKPEDPAVYYCAAPQRYPRFYYWGQGTQVTVSS | high polyreactivity
21 | QDQLVESGGGLVQAGGSLRLSCAASGSIFFINAMGWYRQAPGKERELVAAITYSGGSTYYADSVKGRFTISRDNAKYTVYLQMNSLKPEDTAVYYCAADQYSFLPWIAWLLDDYWGQGTQVTVSS | low polyreactivity
22 | QDQLVESGGGLVQAGGSLRLSCAASGSIFKRYAMGWYRQAPGKERELVAAISYSGGSTYYADSVKGRFTISRDNAKNTVYLQMNSLKPEDTAVYYCAAATYRQQWHYYWGQGTQVTVSS | high polyreactivity

Row | Sequence | polyreactivity (PSR sort gate)
23 | QDQLVESGGGLVQAGGSLRLSCAASGSIFLIYAMGGYRQAPGKERELVAAITWGGGSTYYADSVKGRFTISRDNAKNTVYLQMTSLKPVDTAVYYCAAYSYSSSFGYRYDYWGQGTQVTVSS | high polyreactivity
24 | QDQLVESGGGLVQAGGSLRLSCAASGSIFQSNAMGWYRQAPGKERELVAAITSVGRTNYADSVKGRFTIARDNAKNTVYLQMNSLKPEDTAVYYCAADLRGDNRYYYWGQGTQVTVSS | low polyreactivity
25 | QDQLVESGGGLVQAGGSLRLSCAASGSIFQSYAMGWYRQAPGKERELVAANDRSGTSTYYADSVKGRFTISRDNAKNTVYLQLNSLKPEDTAVYYCAAVSSRGRFGYTVQIEYDYWGQGTQVTVSS | low polyreactivity
26 | QDQLVESGGGLVQAGGSLRLSCAASGSIFRRNSIGWYRQAPGKERELVAAIRWSSGSTYYADSVKGRFTISRDNAKNTVYLQMNSLKPEDTAVYYCAAAKRAYSYVLHAFYYWGQGTQVTVSS | high polyreactivity
27 | QDQLVESGGGLVQAGGSLRLSCAASGSIFSYTMGCYRQAPAKQRELVAAITSGGITYYADSVKGRFSISRDNAKNTVYLQMNSLKPEDTAVYYCADGWSSYRFGYWGQGTQVTVSS | low polyreactivity
28 | QDQLVESGGGLVQAGGSLRLSCAASGSIFVIYAMGWYRPAPGKERQLVAAITTIGGRTYYADSVKGRFTISRDHAKNTVYLQMNSLKPEDTAVYYCAADIRSNRLYDGGYWGQGTQVTVSS | low polyreactivity
29 | QDQLVESGGGLVQAGGSLRLSCAASGSILRAYAMGWYRQAPGKERELVADIDWSAGITHYADSVKGRFTISRDNAMNPVYLQMNSLKPEDTAVYYCSARYYWYDYIVYYGDYWGQGTLVTVSS | high polyreactivity
30 | QDQLVESGGGLVQAGGSLRLSCAASGSISYYAMGWYRQAPGKERELVAAISSSGGSTYYADSVKGRFTISRDNAKNTVYLQMNSLKPEDTAVYYCAARYYGFPSKYDYWGQGTQVTVSS | high polyreactivity
31 | QDQLVESGGGLVQAGGSLRLSCAASGSITAPYAMGWYRQAPGKERELVAAISYSGGSTNYADSVKGRFTISRDNAKNTVYLQMNSRKPEATAVYYCAARGYSGYRTSPLARYDYWGKGTQVTVSS | high polyreactivity
32 | QDQLVESGGGLVQAGGSLRLSCAASGSSFLVYAMGWYRQATGKEREFVAAIRGGGSTNYADSVKGRFTISRDNAMNTVYLQMNSLKPEDTAVYYCAAYLLYTPSMDYWGQGTQVTVSS | low polyreactivity
33 | QDQLVESGGGLVQAGGSLRLSCAASGSTFAYYAMGWYRQAPGKERELVAAITIDGRTSYADSVKGRFTISRDNAKNTVYLQMISLNQVDTAVYYCARGYFPYGYPWRWGYDRFDYWGQGTQVTVSS | low polyreactivity
34 | QDQLVESGGGLVQAGGSLRLSCAASGSTFGYYAMGWYRQAPRKERELVAAISWRGGSTSYADSVKGRFTISRDNAKNTVYLQMNSLKPEDTAVYYCAAPRGTLTSWAGNYWGQGTQVTVSS | high polyreactivity
35 | QDQLVESGGGLVQAGGSLRLSCAASGSTFKRYAMGWYSQAPGKVRELVAAISRRGGSTYYADSVKGRFTISRDNAKNTVYLQMNSLKPEDTAVYYCAARIASHHYYYWGQGTQVTVSS | high polyreactivity
36 | QDQLVESGGGLVQAGGSLRLSCAASGSTFQENAMGWYRQAPGKEREFVAAISGSGGSTYYADSVKGRFTISRDNAKNSVYLQMNSLKPEDTAVYYCAAYVTGYVNTVGSGWLVWGVDFWGQGTQVTVSS | low polyreactivity
37 | QDQLVESGGGLVQAGGSLRLSCAASGSTFRRYAIGWYRQAPGKERELVAAITSGGRTNYADSVKGRFTISRDNAKNTVYLQMNSLKPEDTAVYYCNAKAYKLGQSYWGYDYWGQGTQVTVSS | high polyreactivity
38 | QDQLVESGGGLVQAGGSLRLSCAASGSTFTGYTMGWYRQAPGKERELVAAITYRGGSTYYADSVKGRFTISRDNAKNTVYLQMNSLKPEDTAVYYCAAVPEYYEYTPYDYWGQGTQVTVSS | low polyreactivity
39 | QDQLVESGGGLVQAGGSLRLSCAASRITIYRYVMGWYRQAPGKERELVAAITSAGSTNYADSVKGRFTISRDHAKTTVYLQMNSLKPEDTAVYYCNADYKGYVRPYVRIRYGYWGQGTQVTVSS | low polyreactivity
40 | QDQLVESGGGLVQAGGSLRLSCAASVITFVRNAKGWYRQAPGKERELVAAMSGRGGITYYADSVKGRFTISRDNAKNTVYLQMNSLKPEDTAVYYCAASSAGSSYNYWGQGTQVTVSS | high polyreactivity
41 | QDQLVESGGGLVQAGGSLRLSCAASVSTFRVYAMGWYRQAPGKERELVAAISSSGGITYYADSVKGRFTLSRDNAKNTVYLQMNSLKPEATAVYYCAKGTVIHVLYDYWGEGTQVTVSS | low polyreactivity
42 | QDQLVESGGGLVQAGGSLRLSCAATASIFVTYAMGWYRQAPGQERELVAAINYSGGSTYYADSVKGRFTISRDNAKNTFYLQMNSLKPEDTAVNYCAADERVDQGWIRMDYWGQGTQVTVSS | low polyreactivity
43 | QDQLVESGGGLVQAGGSLRLSCAATGFIIGWNTMGWYRPAPRKEREVVAAISSGGGSTYYADSVKGRFTISRDNAKNNVYLQMNSLKPEDTAVFYCNAVSFKHVYHTDTYGVNEFVYWGEGTQVTVSS | high polyreactivity
